# In patent US20250163162A1:
# T1: IL10Rα and IL2Rγ on human primary cells (CD8 T cells, CD4 T cells, monocytes) (human) (UniProt Q13651)
# T1 sequence (looked up) 1: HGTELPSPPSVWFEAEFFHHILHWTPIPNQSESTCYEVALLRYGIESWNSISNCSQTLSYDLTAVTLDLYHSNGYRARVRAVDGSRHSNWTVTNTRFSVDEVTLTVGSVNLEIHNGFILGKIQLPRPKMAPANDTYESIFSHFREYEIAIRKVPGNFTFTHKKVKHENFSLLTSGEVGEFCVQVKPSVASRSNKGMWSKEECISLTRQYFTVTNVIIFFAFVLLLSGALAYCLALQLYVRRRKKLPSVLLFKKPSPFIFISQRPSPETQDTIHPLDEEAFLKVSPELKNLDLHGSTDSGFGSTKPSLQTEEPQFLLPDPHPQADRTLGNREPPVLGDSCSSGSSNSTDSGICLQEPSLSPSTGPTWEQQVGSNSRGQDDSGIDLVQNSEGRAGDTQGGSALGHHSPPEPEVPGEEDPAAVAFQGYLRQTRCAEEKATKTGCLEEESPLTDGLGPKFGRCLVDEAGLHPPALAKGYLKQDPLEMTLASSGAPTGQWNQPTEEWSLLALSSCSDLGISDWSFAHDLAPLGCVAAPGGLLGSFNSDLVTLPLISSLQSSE
# T1 sequence (looked up) 2: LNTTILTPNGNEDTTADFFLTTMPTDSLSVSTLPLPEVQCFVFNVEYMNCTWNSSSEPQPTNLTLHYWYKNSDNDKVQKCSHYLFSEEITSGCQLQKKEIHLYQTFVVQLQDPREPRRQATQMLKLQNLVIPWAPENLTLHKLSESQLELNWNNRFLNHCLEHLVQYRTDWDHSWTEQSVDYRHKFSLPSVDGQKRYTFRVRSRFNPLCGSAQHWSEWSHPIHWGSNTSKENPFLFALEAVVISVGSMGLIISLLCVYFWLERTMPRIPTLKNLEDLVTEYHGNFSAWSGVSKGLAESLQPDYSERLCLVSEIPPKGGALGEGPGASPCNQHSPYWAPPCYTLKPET
# Biological target: T1, IL10Rα and IL2Rγ on human primary cells (CD8 T cells, CD4 T cells, monocytes) (human)
# Experiment: cell-based or functional assay
Binder,pSTAT3 (MFI) in CD4 T cells at 0.0001 µM [MFI],pSTAT3 (MFI) in CD4 T cells at 0.001 µM [MFI],pSTAT3 (MFI) in CD4 T cells at 0.01 µM [MFI],pSTAT3 (MFI) in CD4 T cells at 0.1 µM [MFI],pSTAT3 (MFI) in CD4 T cells at 1 µM [MFI],pSTAT3 (MFI) in CD4 T cells at 10 µM [MFI],pSTAT3 (MFI) in CD4 T cells at 100 µM [MFI],pSTAT3 (MFI) in CD8 T cells at 0.0001 µM [MFI],pSTAT3 (MFI) in CD8 T cells at 0.001 µM [MFI],pSTAT3 (MFI) in CD8 T cells at 0.01 µM [MFI]
"hIL10Ra_VHH14-hIL2Rg_VHH19, linker GGSGGS, tag his (bispecific antibody, not shown: small tags and cut ends) QVQLQESGGGSVQAGGSLRLSCGASGYTYSSYCMGWFRQVPGKEREGVAVIDSDGSTSYADSVKGRFTISKDNGKNTLYLQMNSLKPEDTAMYYCAADLGHYRPPCGVLYLGMDYWGKGTQVTVSSGGSGGSQVQLQESGGGSVQAGGSLRLSCTASGFTFDDREMNWYRQAPGNECELVSTISSDGSTYYADSVKGRFTISQDNAKNTVYLQMDSVKPEDTAVYYCAADFMIAIQAPGAGCWGQGTQVTVSS",13200,13900,12800,13600,13000,11800,10200,7960,8500,7660
"hIL10Ra_VHH14-hIL2Rg_VHH19, linker GGGS, tag Fc (Fc fusion, not shown: a dimerising Fc or GST) QVQLQESGGGSVQAGGSLRLSCGASGYTYSSYCMGWFRQVPGKEREGVAVIDSDGSTSYADSVKGRFTISKDNGKNTLYLQMNSLKPEDTAMYYCAADLGHYRPPCGVLYLGMDYWGKGTQVTVSSGGGSQVQLQESGGGSVQAGGSLRLSCTASGFTFDDREMNWYRQAPGNECELVSTISSDGSTYYADSVKGRFTISQDNAKNTVYLQMDSVKPEDTAVYYCAADFMIAIQAPGAGCWGQGTQVTVSS",12600,12600,12500,11300,13600,14800,16000,7540,7890,7800
"hIL10Ra_VHH14-hIL2Rg_VHH19, linker GGGS, tag his (bispecific antibody, not shown: small tags and cut ends) QVQLQESGGGSVQAGGSLRLSCGASGYTYSSYCMGWFRQVPGKEREGVAVIDSDGSTSYADSVKGRFTISKDNGKNTLYLQMNSLKPEDTAMYYCAADLGHYRPPCGVLYLGMDYWGKGTQVTVSSGGGSQVQLQESGGGSVQAGGSLRLSCTASGFTFDDREMNWYRQAPGNECELVSTISSDGSTYYADSVKGRFTISQDNAKNTVYLQMDSVKPEDTAVYYCAADFMIAIQAPGAGCWGQGTQVTVSS",11900,12100,11700,9670,9590,11400,14700,7210,7460,7200
"hIL10Ra_VHH14-hIL2Rg_VHH19, linker GS, tag his (bispecific antibody, not shown: small tags and cut ends) QVQLQESGGGSVQAGGSLRLSCGASGYTYSSYCMGWFRQVPGKEREGVAVIDSDGSTSYADSVKGRFTISKDNGKNTLYLQMNSLKPEDTAMYYCAADLGHYRPPCGVLYLGMDYWGKGTQVTVSSGSQVQLQESGGGSVQAGGSLRLSCTASGFTFDDREMNWYRQAPGNECELVSTISSDGSTYYADSVKGRFTISQDNAKNTVYLQMDSVKPEDTAVYYCAADFMIAIQAPGAGCWGQGTQVTVSS",11700,12800,13600,10900,12900,12600,11600,7400,8110,8110
"hIL10Ra_VHH14-hIL2Rg_VHH19, no linker, tag his (bispecific antibody, not shown: small tags and cut ends) QVQLQESGGGSVQAGGSLRLSCGASGYTYSSYCMGWFRQVPGKEREGVAVIDSDGSTSYADSVKGRFTISKDNGKNTLYLQMNSLKPEDTAMYYCAADLGHYRPPCGVLYLGMDYWGKGTQVTVSSQVQLQESGGGSVQAGGSLRLSCTASGFTFDDREMNWYRQAPGNECELVSTISSDGSTYYADSVKGRFTISQDNAKNTVYLQMDSVKPEDTAVYYCAADFMIAIQAPGAGCWGQGTQVTVSS",12200,12900,12500,11000,12100,11800,9040,7380,7740,7800

# Same assay, conditions: not given
Binder,pSTAT3 (MFI) in CD8 T cells at 0.1 µM [MFI],pSTAT3 (MFI) in CD8 T cells at 1 µM [MFI],pSTAT3 (MFI) in CD8 T cells at 10 µM [MFI],pSTAT3 (MFI) in CD8 T cells at 100 µM [MFI],pSTAT3 (MFI) in monocytes at 0.0001 µM [MFI],pSTAT3 (MFI) in monocytes at 0.001 µM [MFI],pSTAT3 (MFI) in monocytes at 0.01 µM [MFI],pSTAT3 (MFI) in monocytes at 0.1 µM [MFI],pSTAT3 (MFI) in monocytes at 1 µM [MFI],pSTAT3 (MFI) in monocytes at 10 µM [MFI]
"hIL10Ra_VHH14-hIL2Rg_VHH19, linker GGSGGS, tag his (bispecific antibody, not shown: small tags and cut ends) QVQLQESGGGSVQAGGSLRLSCGASGYTYSSYCMGWFRQVPGKEREGVAVIDSDGSTSYADSVKGRFTISKDNGKNTLYLQMNSLKPEDTAMYYCAADLGHYRPPCGVLYLGMDYWGKGTQVTVSSGGSGGSQVQLQESGGGSVQAGGSLRLSCTASGFTFDDREMNWYRQAPGNECELVSTISSDGSTYYADSVKGRFTISQDNAKNTVYLQMDSVKPEDTAVYYCAADFMIAIQAPGAGCWGQGTQVTVSS",8160,7720,8300,7000,4220,4680,4560,4470,4750,4890
"hIL10Ra_VHH14-hIL2Rg_VHH19, linker GGGS, tag Fc (Fc fusion, not shown: a dimerising Fc or GST) QVQLQESGGGSVQAGGSLRLSCGASGYTYSSYCMGWFRQVPGKEREGVAVIDSDGSTSYADSVKGRFTISKDNGKNTLYLQMNSLKPEDTAMYYCAADLGHYRPPCGVLYLGMDYWGKGTQVTVSSGGGSQVQLQESGGGSVQAGGSLRLSCTASGFTFDDREMNWYRQAPGNECELVSTISSDGSTYYADSVKGRFTISQDNAKNTVYLQMDSVKPEDTAVYYCAADFMIAIQAPGAGCWGQGTQVTVSS",7330,9320,12300,13200,4370,4740,4420,4810,5690,6690
"hIL10Ra_VHH14-hIL2Rg_VHH19, linker GGGS, tag his (bispecific antibody, not shown: small tags and cut ends) QVQLQESGGGSVQAGGSLRLSCGASGYTYSSYCMGWFRQVPGKEREGVAVIDSDGSTSYADSVKGRFTISKDNGKNTLYLQMNSLKPEDTAMYYCAADLGHYRPPCGVLYLGMDYWGKGTQVTVSSGGGSQVQLQESGGGSVQAGGSLRLSCTASGFTFDDREMNWYRQAPGNECELVSTISSDGSTYYADSVKGRFTISQDNAKNTVYLQMDSVKPEDTAVYYCAADFMIAIQAPGAGCWGQGTQVTVSS",6580,6500,7930,9970,4150,4510,4360,4280,4640,4840
"hIL10Ra_VHH14-hIL2Rg_VHH19, linker GS, tag his (bispecific antibody, not shown: small tags and cut ends) QVQLQESGGGSVQAGGSLRLSCGASGYTYSSYCMGWFRQVPGKEREGVAVIDSDGSTSYADSVKGRFTISKDNGKNTLYLQMNSLKPEDTAMYYCAADLGHYRPPCGVLYLGMDYWGKGTQVTVSSGSQVQLQESGGGSVQAGGSLRLSCTASGFTFDDREMNWYRQAPGNECELVSTISSDGSTYYADSVKGRFTISQDNAKNTVYLQMDSVKPEDTAVYYCAADFMIAIQAPGAGCWGQGTQVTVSS",7100,8200,8410,7900,4040,4820,4010,4430,4790,4930
"hIL10Ra_VHH14-hIL2Rg_VHH19, no linker, tag his (bispecific antibody, not shown: small tags and cut ends) QVQLQESGGGSVQAGGSLRLSCGASGYTYSSYCMGWFRQVPGKEREGVAVIDSDGSTSYADSVKGRFTISKDNGKNTLYLQMNSLKPEDTAMYYCAADLGHYRPPCGVLYLGMDYWGKGTQVTVSSQVQLQESGGGSVQAGGSLRLSCTASGFTFDDREMNWYRQAPGNECELVSTISSDGSTYYADSVKGRFTISQDNAKNTVYLQMDSVKPEDTAVYYCAADFMIAIQAPGAGCWGQGTQVTVSS",6780,7720,7490,6200,3970,4600,4420,4420,4480,4330

# Same assay, conditions: not given
row,Binder,pSTAT3 (MFI) in monocytes at 100 µM [MFI]
1,"hIL10Ra_VHH14-hIL2Rg_VHH19, linker GGSGGS, tag his (bispecific antibody, not shown: small tags and cut ends) QVQLQESGGGSVQAGGSLRLSCGASGYTYSSYCMGWFRQVPGKEREGVAVIDSDGSTSYADSVKGRFTISKDNGKNTLYLQMNSLKPEDTAMYYCAADLGHYRPPCGVLYLGMDYWGKGTQVTVSSGGSGGSQVQLQESGGGSVQAGGSLRLSCTASGFTFDDREMNWYRQAPGNECELVSTISSDGSTYYADSVKGRFTISQDNAKNTVYLQMDSVKPEDTAVYYCAADFMIAIQAPGAGCWGQGTQVTVSS",4730
2,"hIL10Ra_VHH14-hIL2Rg_VHH19, linker GGGS, tag Fc (Fc fusion, not shown: a dimerising Fc or GST) QVQLQESGGGSVQAGGSLRLSCGASGYTYSSYCMGWFRQVPGKEREGVAVIDSDGSTSYADSVKGRFTISKDNGKNTLYLQMNSLKPEDTAMYYCAADLGHYRPPCGVLYLGMDYWGKGTQVTVSSGGGSQVQLQESGGGSVQAGGSLRLSCTASGFTFDDREMNWYRQAPGNECELVSTISSDGSTYYADSVKGRFTISQDNAKNTVYLQMDSVKPEDTAVYYCAADFMIAIQAPGAGCWGQGTQVTVSS",6030
3,"hIL10Ra_VHH14-hIL2Rg_VHH19, linker GGGS, tag his (bispecific antibody, not shown: small tags and cut ends) QVQLQESGGGSVQAGGSLRLSCGASGYTYSSYCMGWFRQVPGKEREGVAVIDSDGSTSYADSVKGRFTISKDNGKNTLYLQMNSLKPEDTAMYYCAADLGHYRPPCGVLYLGMDYWGKGTQVTVSSGGGSQVQLQESGGGSVQAGGSLRLSCTASGFTFDDREMNWYRQAPGNECELVSTISSDGSTYYADSVKGRFTISQDNAKNTVYLQMDSVKPEDTAVYYCAADFMIAIQAPGAGCWGQGTQVTVSS",4880
4,"hIL10Ra_VHH14-hIL2Rg_VHH19, linker GS, tag his (bispecific antibody, not shown: small tags and cut ends) QVQLQESGGGSVQAGGSLRLSCGASGYTYSSYCMGWFRQVPGKEREGVAVIDSDGSTSYADSVKGRFTISKDNGKNTLYLQMNSLKPEDTAMYYCAADLGHYRPPCGVLYLGMDYWGKGTQVTVSSGSQVQLQESGGGSVQAGGSLRLSCTASGFTFDDREMNWYRQAPGNECELVSTISSDGSTYYADSVKGRFTISQDNAKNTVYLQMDSVKPEDTAVYYCAADFMIAIQAPGAGCWGQGTQVTVSS",4930
5,"hIL10Ra_VHH14-hIL2Rg_VHH19, no linker, tag his (bispecific antibody, not shown: small tags and cut ends) QVQLQESGGGSVQAGGSLRLSCGASGYTYSSYCMGWFRQVPGKEREGVAVIDSDGSTSYADSVKGRFTISKDNGKNTLYLQMNSLKPEDTAMYYCAADLGHYRPPCGVLYLGMDYWGKGTQVTVSSQVQLQESGGGSVQAGGSLRLSCTASGFTFDDREMNWYRQAPGNECELVSTISSDGSTYYADSVKGRFTISQDNAKNTVYLQMDSVKPEDTAVYYCAADFMIAIQAPGAGCWGQGTQVTVSS",4140
